# Data from US12144818B2, “Method for treating cancer in a human patient by administering an anti-CD37 immunoconjugate using various dosing regimens” (DEBIOPHARM INTERNATIONAL, S.A., priority 2018, dated 2024).
# Columns and labels:
# [1] = Phase 1 monotherapy study, safety; type: in vivo, human
# Method: As such, a more frequent QW dosing schedule with 0.4/0.2/0.2 mg/kg (combined with rituximab Q3W at 375 mg/m^2) should not increase the risk of neutropenia.
# [2] = biological target: T1, CD37 (Homo sapiens, UniProt P11049); experiment: Theoretical receptor occupancy derived from observed Cmax, monotherapy Phase 1 study; type: in vivo; settings: even at low dose levels
# T1 construct: endogenous in cells; host or cells: CD3+ T and CD56+ NK lymphocytes in blood samples from DLBCL patients of Cohorts A and B
# T1 sequence (P11049 1-281): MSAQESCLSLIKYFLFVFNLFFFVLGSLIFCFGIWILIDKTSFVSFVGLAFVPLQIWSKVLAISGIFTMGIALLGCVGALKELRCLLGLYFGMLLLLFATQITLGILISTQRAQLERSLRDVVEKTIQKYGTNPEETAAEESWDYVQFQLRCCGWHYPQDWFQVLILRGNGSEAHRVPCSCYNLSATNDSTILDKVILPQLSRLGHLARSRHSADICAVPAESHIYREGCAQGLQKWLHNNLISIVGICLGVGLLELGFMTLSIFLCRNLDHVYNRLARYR
# Method: Therefore, a 0.4 mg/kg loading dose followed by 2 weekly doses of 0.2 mg/kg is expected to provide adequate target saturation across a 3-weeks cycle.
# [3] = biological target: T1, CD37; experiment: CD37 receptor occupancy on CD3+T and CD56+NK cells of Cohort A and B subjects; type: in vivo
# From the text: The maximum RO observed at C1D2 (cycle 1-dose 2) and C1D3 was greater than 90% for both cohorts.
# [4] = QW versus Q3W regimen, with rituximab
# Method: Adverse events are monitored continuously throughout the study. Adverse events include any noxious, pathologic, or unintended change in anatomical, physiologic, or metabolic function as indicated by physical signs, symptoms, or laboratory changes occurring in any phase of a clinical study, whether or not considered study drug-related. PK parameters that are evaluated include, but are not limited to: Cmax, Tmax, Terminal half-life (t1/2), Vss, CL, AUC0-t, AUCinf.
# [5] = system: panel of cell lines representative of diverse NHL subtypes (ABC and GCB DLBCL, CLL, MCL); settings: in combination with rituximab; described in WO 2016/200676; cited from earlier work
# [6] = low doses such as 0.4 mg/kg and 0.2 mg/kg; cited from earlier work
substance,measurement,setting,value
"Debio 1562: immunoconjugate containing the huCD37-3 antibody, the SMCC linker, and the DM1 maytansinoid",maximum tolerated dose (MTD),"[1]; Phase 1, without G-CSF",1 mg/kg
same,neutrophil count,"[1]; majority of patients, single Q3W dosing with 0.2-0.4 mg/kg, Phase 1",no decrease in neutrophil count
same,saturation of the CD37 sites (theoretical receptor occupancy),[2],> 95%
same,CD37 receptor occupancy (RO) after administration,"[3]; C1D1, CD3+T and CD56+NK lymphocytes, Cohorts A and B",greater than 80%
same,maximum RO,"[3]; C1D2 and C1D3, both cohorts",greater than 90%
same,RO just before re-administration,[3]; samples just before re-administration in cycle 2 and cycle 3,No RO was observed
same,safety,[4],comparable in the QW regimen and the Q3W regimen
same,pro-apoptotic activity of the combination,[5],synergistic pro-apoptotic activity
same,clearance,[6],substantially higher at low doses
same,half-life,[6],lower
